Like-named read-outs stand apart in the source and are kept apart here.
B1: Enzyme I (EI), full length (residues 1-575), from E. coli (enzyme)
chain: not shown
B2: histidine phosphocarrier protein HPr (natural protein)
chain: not shown

Tests used:
AUC = target: the molecule itself; experiment: AUC
[1] = target: B1; experiment: ITC
[2] = target: B1; experiment: ITC; remark: listed apart in the source

Binder	stoichiometry N (AUC)	Kd [1]	Kd [2]
B1	2	–	–
B2	–	6.8 ± 1.8 µM	21 ± 1.1 µM

Reference: PMC2955445 (Journal of the American Chemical Society, 2010)
